Data: paper doi:10.1101/605725

Biological target: GST-Nxf2 first LRR region (1-285) (UniProt Q9VV73 1-285)
Assay: EMSA

Sequence of GST-Nxf2 first LRR region (1-285) (Q9VV73 1-285): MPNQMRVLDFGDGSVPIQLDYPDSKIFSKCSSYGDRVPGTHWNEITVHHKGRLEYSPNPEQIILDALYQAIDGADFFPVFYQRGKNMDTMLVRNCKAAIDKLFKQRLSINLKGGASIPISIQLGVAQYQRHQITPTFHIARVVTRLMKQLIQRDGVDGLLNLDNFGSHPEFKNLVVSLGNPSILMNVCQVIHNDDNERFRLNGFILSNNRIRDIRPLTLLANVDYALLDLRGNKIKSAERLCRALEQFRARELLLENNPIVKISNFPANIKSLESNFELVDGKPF

AGCACCGUAAAGACGC (ssRNA) [16-mer ssRNA]: binds.
